In the assay the target is T1, MLO-Y4 cell surface proteins (Mus musculus, UniProt E9PW83).
T1 construct: endogenous in cells; host or cells: MLO-Y4
T1 sequence (E9PW83 1-1143): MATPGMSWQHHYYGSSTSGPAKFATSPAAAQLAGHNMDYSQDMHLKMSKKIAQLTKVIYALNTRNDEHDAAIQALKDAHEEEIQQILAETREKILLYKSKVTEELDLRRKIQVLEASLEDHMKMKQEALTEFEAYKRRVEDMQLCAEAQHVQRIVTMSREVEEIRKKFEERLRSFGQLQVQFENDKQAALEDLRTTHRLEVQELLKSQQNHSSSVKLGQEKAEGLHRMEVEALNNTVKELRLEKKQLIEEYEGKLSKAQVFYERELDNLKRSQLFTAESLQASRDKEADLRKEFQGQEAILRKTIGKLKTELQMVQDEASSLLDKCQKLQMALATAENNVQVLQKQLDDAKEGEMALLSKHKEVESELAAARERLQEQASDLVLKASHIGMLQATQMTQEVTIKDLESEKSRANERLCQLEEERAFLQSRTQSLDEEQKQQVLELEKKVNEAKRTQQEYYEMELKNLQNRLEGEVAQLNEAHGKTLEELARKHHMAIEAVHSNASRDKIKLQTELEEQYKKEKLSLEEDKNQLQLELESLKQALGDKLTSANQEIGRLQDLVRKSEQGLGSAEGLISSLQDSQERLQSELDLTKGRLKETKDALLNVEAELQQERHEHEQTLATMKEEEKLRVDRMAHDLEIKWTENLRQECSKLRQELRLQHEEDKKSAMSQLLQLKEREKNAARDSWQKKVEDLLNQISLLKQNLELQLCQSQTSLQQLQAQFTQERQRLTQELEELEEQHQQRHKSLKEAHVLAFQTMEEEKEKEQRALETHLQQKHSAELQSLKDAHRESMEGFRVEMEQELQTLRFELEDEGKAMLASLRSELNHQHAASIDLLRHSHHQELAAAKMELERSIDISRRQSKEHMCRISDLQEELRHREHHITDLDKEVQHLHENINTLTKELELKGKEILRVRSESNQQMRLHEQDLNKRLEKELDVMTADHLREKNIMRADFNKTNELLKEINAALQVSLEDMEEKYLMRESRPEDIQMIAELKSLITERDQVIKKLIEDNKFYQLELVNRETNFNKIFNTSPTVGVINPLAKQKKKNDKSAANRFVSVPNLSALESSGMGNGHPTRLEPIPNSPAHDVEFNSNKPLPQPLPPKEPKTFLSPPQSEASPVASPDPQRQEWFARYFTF
Put plainly: Crosslinking/co-immunoprecipitation/mass spectrometry (TMT quantitative proteomics) to identify irisin receptors. Conditions: co-precipitated protein Fam184a (E9PW83_MOUSE). The class given is binding. A digest of the protocol:
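Relative protein abundance came from 6-plex TMT MS3 quantitation on an Orbitrap Fusion Lumos, after in-gel trypsin digestion of Coomassie-stained SDS-PAGE lanes. Input was a Ni-NTA pulldown (250 mM imidazole elution) of lysates from murine MLO-Y4 cells. These cells were treated on ice with His-tagged irisin or adipsin (10 nM, 20 min) in serum-free medium, then crosslinked with 1.5 mM DTSSP for 30 min.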

In the case of adipsin, the TMT signal-to-noise ratio stood at 877.972.

(Values after patent publication US20210063414A1, “METHODS FOR PREVENTING AND/OR TREATING BONE LOSS CONDITIONS BY MODULATING IRISIN” (Dana-Farber Cancer Institute, Inc., priority 2018, published 2021).)
